Assay [1] deals with T1, human IGF-II (human, UniProt P01344 25-91).
T1 construct: mature; It was biotinylated for the flow cytometry assays; also called hIGF-II; insulin-like growth factor II
Kind of assay: ELISA, hIGF-II coated on the plate. As for the experimental part:
The half-maximal binding (EC₅₀) was calculated by fitting the data to the Langmuir adsorption isotherm.
(§1) ELISA was performed as described previously (Chen et al., 2008, supra). Bound Fabs and eAds were detected by HRP-conjugated mouse anti-FLAG tag antibody. The antibody-Fc fusion proteins binding to IGF-II directly coated on 96-well plates were detected by HRP-conjugated goat anti-human IgG (Fc-specific) antibody. […] The half-maximal binding (EC₅₀) was calculated by fitting the data to the Langmuir adsorption isotherm.

The target of assay [2] is T1, human IGF-II. Briefly: SPR, Biacore X100, antibody amine-coupled to a CM5 chip, hIGF-II as analyte, monovalent binding model. (SPR reads the build-up and loss of mass on a sensor chip optically.)
Description: ELISA was performed by coating IGF-II on 96-well plates. Bound antibodies were detected by HRP-conjugated goat anti-human IgG (Fc-specific) antibody. SPR analysis was performed on Biacore X100 by according to the manufacturer's instructions.
The binding kinetics of the antibodies was assessed by SPR analysis on Biacore X100 (GE Healthcare) according to the manufacturer's instructions. Briefly, antibodies were diluted in sodium acetate (pH 5.0) and immobilized directly onto a CM5 sensor chip with standard amine coupling method. The reference cell was injected with N-hydroxysuccinimide/1-ethyl-3-(3-dimethyaminopropy) carbodiimide and ethanolamine without injection of IGF-II. IGF-II was diluted with running buffer HBS-EP (100 mM HEPES, pH 7.4, 1.5 M NaCl, 30 mM EDTA, 0.5% surfactant 20). […] The kinetic constants were calculated from the sensorgrams fitted with the monovalent binding model of the BiacoreX100 Evaluation software 2.0.
Assay [3] addresses T1, human IGF-II. Briefly: ELISA, Fab on hIGF-II. Background: In an ELISA, binding on a coated surface is turned into a signal by an enzyme label.
In another assay the target is T2, mouse IGF-II (mouse, UniProt P09535 25-91).
T2 construct: also called mIGF-II
Kind of assay: ELISA-based competition assay.

Assay [4] has as its target T1, human IGF-II. Kind of assay: ELISA on hIGF-II. The method, then: as §1
Assay [5] deals with T1, human IGF-II. Briefly: phage library panned on hIGF-II, semELISA screening. The method, then:
The PCR products were gel-purified, digested with SfiI, and gel-purified again. The purified fragments were then cloned into pComb3X linearized by SfiI. A phage library was prepared by electroporation of Escherichia coli (E. coli) strain TG1 electroporation-competent cells (Stratagene, La Jolla, Calif.) with desalted and concentrated ligation, as described previously (Chen et al., 2008, J Mol Biol 382:779-89).

In assay [6] the target is T1, human IGF-II. Briefly: ELISA, eAd on hIGF-II. As for the experimental part:
as §1

The values below come from patent publication US20140271646A1 (UNITED STATES OF AMERICA AS REPRESENTED BY THE SECRETARY …, published 2014).

T1 sequence (P01344 25-91): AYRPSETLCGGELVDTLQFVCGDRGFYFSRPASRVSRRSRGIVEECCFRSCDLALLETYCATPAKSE
T2 sequence (P09535 25-91 limits assumed): as the sequence (P01344 25-91) above, with R3G, S5G, G22S, A32S, V35A, S36N counted along it

B1: m660 (bispecific antibody, human IgG1, kappa)
heavy: not shown
light: QVQLVQSGGGLVQPGGSLRLSCAASSFDFDYYEMSWVRQAPGQRLEWVAYISKSGGTKMYADSVKGRFTISRDNSKNTLYLQMNTLRAEDTAMYYCAKDRATCRGGRCYSFYYGMDVWGQGTLVTVSSGGGGSGGGGSGGGGSRTVAAPSVFIFPPSDEQLKSGTASVVCLLNNFYPREAKVQWKVDNALQSGNSQESVTEQDSKDSTYSLSSTLTLSKADYEKHKVYACEVTHQGLSSPVTKSFNRGEC
notes: Produced in 293 free style cells; also called bispecific antibody m660
The Kd is the free concentration of one partner at which half of the binding sites on the other are occupied at equilibrium, for simple one-to-one binding. Take B1: in the assay with human IGF-II [1], the “fold lower EC50 than IgG1 m610.7” value was 3 fold. For the same molecule, the Kd with human IGF-II [2] worked out at 0.136 nM.

B2: Fab m610.27 (Fab, V domains shown)
VH: QVQLVQSGAEVKKPGASVKVSCKASGYTFTSYYMHWVRQAPGQGLEWMGIINPSGGSTSYAQKFQGRVTMTRDTSTSTVYMELSRLRSDDTAVYYCARDVQWLAYGMDVWGQGTTVTVSS
VL: DIQMTQSPSSLSASVGDRVTITCRASQSISSYLNWYQQKPGRAPDLLINAASSLQSGVPSRFSGSGSGTDFTLTISSLQPEDFATYFCQQSYSLPFTFGGGTKVEIKG
notes: Human Fab expressed in E. coli HB2151; also called m610.27 in Fab format
Usually EC50 stands for the midpoint of the concentration-response curve. High values mean lower potency in that assay, low ones higher potency in that assay. With B2, it took 5 nM to reach a half-maximal effect with human IGF-II [3] (EC50).

B3: m610 (Fab, V domains shown)
VH: QVQLVQSGAEVKKPGASVKVSCKASGYTFTSYYMHWVRQAPGQGLEWMGIINPSGGSTSYAQKFQGRVTMTRDTSTSTVYMELSRLRSDDTAVYYCARDVQWLAYGMDVWGQGTTVTVSS
VL: not shown
notes: also called Fab m610
For the molecule B3, in the assay with mouse IGF-II, the binding result is reported as “binds”. In the assay with human IGF-II [4], this molecule registered an EC50 of 20 nM.

B4: eAd m630.9 (VHH)
VHH: QVQLVQSGGGLVQPGGSLRLSCAASSFDFDYYEMSWVRQAPGQRLEWVAYISKSGGTKMYADSVKGRFTISRDNSKNTLYLQMNTLRAEDTAMYYCAKDRATCSGGRCYSFYYGMDVWGQGTLVTVSS
notes: Mutant of m630 selected from the random mutagenesis library panned on hIGF-II; not shown: C-terminal hexahistidine tag, and a FLAG tag used for detection
Turning to B4, the binding result in the assay with human IGF-II [5] was “binds”.

B5: eAd m630.4 (VHH)
VHH: QVQLVQSGGGLVQPGGSLRLSCAASSFDFGYYEMSWVRQAPGQRLEWVAYISKSGGTKMYADSVKGRFTISRDNSKNTLYLQMNTLRAEDTAMYYCAKDRATCSGGRCYSFYYGMDVWGQGTLVTVSS
notes: as for B4
With B5, in the assay with human IGF-II [5], the binding result is given as “binds”.

B6: eAd m630.3 (VHH)
VHH: QVQLVQSGGGLVQPGGSLRLSCAASSFDFDYYEMSWVRQAPGQRLEWVAYISKSGGTKMYADSVKGRFTISRDNSKNTLYLQMNTLRAEDTAMYYCAKDRATCRGGRCYSFYYGMDVWGQGTLVTVSS
notes: not shown: C-terminal hexahistidine tag, and a FLAG tag used for detection
With B6, in the assay with human IGF-II [6], the EC50 was 2 nM and the “fold lower EC50 than m630” value amounted to 25 fold.

B7: eAd m630 (VHH)
VHH: QVQLVQSGGGLVQPGGSLRLSCAASSFDFDYYEMSWVRQAPGQRLEWVAYISKSGGTKMYADSVKGRFTISRDNSKNTLYLQMNTLRAEDTAMYYCAKDRATCSGGSCYSFYYGMDVWGQGTLVTVSS
notes: Human engineered antibody domain (a single VH domain) expressed in E. coli HB2151; not shown: C-terminal hexahistidine tag, and a FLAG tag used for detection
B7 registered an EC50 with human IGF-II [6] of 50 nM. For the same molecule, the binding result in the assay with mouse IGF-II was “binds”.

B8: eAd m630.1 (VHH)
VHH: QVQLVQSGGGLVQPGGSLRLSCAASSFDFDYYEMSWVRQAPGQRLEWVAYISKSGGTKMYADSVKGRFTISRDNSRNTLYLQMNTLRAEDTAMYYCAKDRATCRGGSCYSFYHGMDVWGQGTLVTVSS
notes: as for B4
With B8, the binding result with human IGF-II [5] is on record as “binds”.
